In experiment [1] the test system is Ostm1. Kind of experiment: Western blot of Ostm1 species after incubating fibroblasts with protease inhibitors. It is filed as cell-based. The following applies: fibroblasts incubated with protease inhibitor, FIG. 1 part (d). For orientation: A western blot detects proteins with antibodies after separation by electrophoresis.
For experiment [2], the target named is T1, ClC-3, endogenous, from solubilized mouse brain membranes (mouse, UniProt P51791 1-818, limits assumed).
T1 construct: Specificity control in the brain co-immunoprecipitation; also called CIC-3
T1 sequence (looked up): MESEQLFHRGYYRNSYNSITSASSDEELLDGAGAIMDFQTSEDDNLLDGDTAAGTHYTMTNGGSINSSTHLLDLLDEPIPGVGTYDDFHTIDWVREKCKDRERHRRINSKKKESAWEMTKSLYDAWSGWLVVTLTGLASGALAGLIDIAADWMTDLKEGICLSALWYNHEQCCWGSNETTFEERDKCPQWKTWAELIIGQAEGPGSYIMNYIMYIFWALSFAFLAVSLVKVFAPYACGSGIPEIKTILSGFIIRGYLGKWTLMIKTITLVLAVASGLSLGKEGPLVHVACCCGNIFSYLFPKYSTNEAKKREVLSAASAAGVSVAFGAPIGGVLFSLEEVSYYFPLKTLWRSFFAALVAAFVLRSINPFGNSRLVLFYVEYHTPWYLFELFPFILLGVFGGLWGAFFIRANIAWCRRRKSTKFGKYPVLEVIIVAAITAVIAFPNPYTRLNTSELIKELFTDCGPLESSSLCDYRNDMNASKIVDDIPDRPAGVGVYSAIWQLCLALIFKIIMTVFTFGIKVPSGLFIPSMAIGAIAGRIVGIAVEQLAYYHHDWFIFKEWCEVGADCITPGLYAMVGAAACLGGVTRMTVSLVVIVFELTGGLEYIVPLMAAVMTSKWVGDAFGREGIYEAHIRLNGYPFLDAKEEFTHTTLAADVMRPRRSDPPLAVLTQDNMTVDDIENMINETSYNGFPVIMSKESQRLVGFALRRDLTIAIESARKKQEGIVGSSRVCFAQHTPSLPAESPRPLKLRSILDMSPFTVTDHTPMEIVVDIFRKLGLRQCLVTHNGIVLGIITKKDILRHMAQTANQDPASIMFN
Kind of experiment: co-immunoprecipitation from solubilized mouse brain membranes, Western blot. From the text: (§1) ClC-7 and Ostm1 can be co-immunoprecipitated using endogenous material (FIG. part (d)) or overexpressed proteins (FIG. 6). […] Solubilized brain membranes from the genotypes indicated were directly loaded on the gel (input, lanes 1-3), or first immunoprecipitated with ClC-7 (lanes 4,5) or Ostm1 antibodies (lanes 6,7).
(§2) Ostm1 or ClC-7 antibodies were crosslinked to protein A sepharose by dimethylpimelimidate. Brain membranes were pelleted and solubilized in lysis buffer (MES buffered saline pH 6.5, 1% Triton X-100, 2.5 mM CaCl_2, 2.5 mM MgCl_2). Non-solubilized material was removed by centrifugation at 70,000×g. Samples were incubated with protein A sepharose-antibody complexes for 2 h at 4° C. and washed 4× with lysis buffer. After elution with 100 μl 0.1 M glycine/Cl, pH 2.8, samples were neutralized and denatured using SDS sample buffer. Equivalent amounts of lysate and precipitate were separated by SDS-PAGE.
(§3) Resulting Western blots were probed for the proteins indicated at right. Arrowheads, specific Ostm1 bands; *, non-specific bands. Equivalent amounts of lysates and precipitates were loaded.

The target of experiment [3] is T2, ClC-6, endogenous, from solubilized mouse brain membranes (mouse, UniProt O35454 1-870).
T2 construct: Specificity control in the brain co-immunoprecipitation; also called CIC-6
T2 sequence (looked up): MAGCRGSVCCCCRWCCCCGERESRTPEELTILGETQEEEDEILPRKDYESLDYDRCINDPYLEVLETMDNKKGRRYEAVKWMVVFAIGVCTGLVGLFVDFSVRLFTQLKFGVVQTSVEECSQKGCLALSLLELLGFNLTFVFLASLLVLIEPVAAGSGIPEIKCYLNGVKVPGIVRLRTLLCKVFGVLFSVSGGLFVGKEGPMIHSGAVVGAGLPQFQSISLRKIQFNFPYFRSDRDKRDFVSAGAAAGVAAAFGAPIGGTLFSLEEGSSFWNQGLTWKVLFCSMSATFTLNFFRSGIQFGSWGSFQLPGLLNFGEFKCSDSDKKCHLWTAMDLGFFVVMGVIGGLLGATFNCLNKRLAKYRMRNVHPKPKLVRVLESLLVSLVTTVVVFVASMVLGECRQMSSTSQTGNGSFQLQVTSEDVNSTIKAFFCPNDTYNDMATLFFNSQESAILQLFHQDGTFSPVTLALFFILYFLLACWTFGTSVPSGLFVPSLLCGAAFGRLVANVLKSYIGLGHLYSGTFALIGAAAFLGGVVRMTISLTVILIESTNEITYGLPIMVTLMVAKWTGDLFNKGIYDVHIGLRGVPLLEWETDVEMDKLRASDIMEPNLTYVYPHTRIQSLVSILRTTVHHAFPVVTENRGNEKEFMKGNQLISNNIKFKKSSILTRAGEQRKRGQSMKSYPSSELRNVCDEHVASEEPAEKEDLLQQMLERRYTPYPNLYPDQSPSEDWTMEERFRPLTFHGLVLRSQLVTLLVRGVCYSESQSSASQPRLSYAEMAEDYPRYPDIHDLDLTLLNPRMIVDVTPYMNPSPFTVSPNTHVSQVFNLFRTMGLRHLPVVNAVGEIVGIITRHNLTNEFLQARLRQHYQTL
Described as above.
From the text: as §1, §2, §3

Experiment [4] addresses T3, lamp-2, endogenous, from solubilized mouse brain membranes (mouse, UniProt P17047 26-415, limits assumed).
T3 construct: Specificity control in the brain co-immunoprecipitation
T3 sequence (looked up): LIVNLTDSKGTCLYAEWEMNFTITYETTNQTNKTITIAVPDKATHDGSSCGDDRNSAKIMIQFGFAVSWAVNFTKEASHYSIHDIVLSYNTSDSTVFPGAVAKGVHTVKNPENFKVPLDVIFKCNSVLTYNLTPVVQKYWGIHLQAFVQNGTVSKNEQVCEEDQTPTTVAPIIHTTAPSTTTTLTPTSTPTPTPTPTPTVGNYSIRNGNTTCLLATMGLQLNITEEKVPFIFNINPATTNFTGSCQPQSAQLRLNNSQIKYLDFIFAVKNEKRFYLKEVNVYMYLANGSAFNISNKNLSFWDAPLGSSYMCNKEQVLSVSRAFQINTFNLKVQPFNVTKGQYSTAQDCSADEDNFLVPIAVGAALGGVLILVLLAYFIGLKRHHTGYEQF
Described as above.
From the text: as §1, §2, §3

In the case of `CC(=O)N[C@@H](CC(C)C)C(=O)N[C@@H](CC(C)C)C(=O)N[C@H](C=O)CCCNC(=N)N` [leupeptin], the “proportion of the large (~80 kD) Ostm1 species versus the smaller ones” value in experiment [1] is on record as “increased the proportion of the large Ostm1 species”.

B1: Ostm1 (Osteopetrosis-associated transmembrane protein 1), endogenous, from solubilized mouse brain membranes (other, UniProt Q8BGT0 35-338, looked up)
chain: ALPFTSSRHPGFADLLSEQQLLEVQDLTLSLLQGGGLGPLSLLPPDLPDLEPECRELLMDFANSSAELTACMVRSARPVRLCQTCYPLFQQVAIKMDNISRNIGNTSEGPRCGGSLLTADRMQIVLMVSEFFNSTWQEANCANCLTNNGEDLSNNTEDFLSLFNKTLACFEHNLQGHTYSLLPPKNYSEVCRNCKEAYKNLSLLYSQMQKLNGLENKAEPETHLCIDVEDAMNITRKLWSRTFNCSVTCSDTVSVVAVSVFILFLPVVFYLSSFLHSEQKKRKLILPKRLKSSTSFANIQENAT
modifications: N-linked glycosylation of the luminal domain
notes: Endogenous protein immunoprecipitated from Triton X-100 solubilized mouse brain membranes; also called product of the OSTM1 gene
B1: the binding result in experiment [2], in experiment [3] and in experiment [4] was “no binding” each time.
